Laboratory results taken from PMC12079668.

T1: zebrafish Cavin4a HR1 domain (residues 16-123) (zebrafish) (UniProt A1L260)
T1 sequence: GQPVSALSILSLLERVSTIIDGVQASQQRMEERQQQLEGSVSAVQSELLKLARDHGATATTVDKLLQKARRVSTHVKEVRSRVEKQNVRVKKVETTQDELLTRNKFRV


Tests used:
[1] = biological target: T1, zebrafish Cavin4a HR1 domain (residues 16-123) (zebrafish); assay: ITC; NbA12 at 500 μM or NbB7 at 400 μM titrated into 30 μM (monomer) cavin HR1 domain or His-MBP full-length mC1; GF150 buffer (20 mM HEPES pH 7.4, 150 mM NaCl), 25°C; fitted with a 1:1 binding ratio
nanobody NbB7 = assay: ITC; details: chain shown with the change

| Kd [1] | Kd (nanobody NbB7) | Binder |
| --- | --- | --- |
| 1.49 µM |  | Nanobody NbB7 (VHH) VHH: QVQLQESGGGLVQAGGSLRLSCAVSGIRVNVNAMYWYRQAPGKQRELVAIITTFGSTNYADSAKGRFTISRDNTKNTVYLQMDNLKPEDTAVYYCNAPQFTDRYWGQGTQVTVSS |
|  | 0.892 µM | mouse Cavin1 HR1 domain (residues 45–155), His-Ub-tagged, O54724 K115Q; R117Q; K118Q; K124Q; R127Q (protein) LIKSDQVNGVLVLSLLDKIIGAVDQIQLTQAQLEERQAEMEGAVQSIQGELSKLGKAHATTSNTVSKLLEQVQQVSVNVQTVQGSLERQAGQIKKLEVNEAELLRRRNFKV |
